Assay results reported in paper PMC8820655 (bioRxiv, 2022).

Columns and labels:
[1] = biological target: Fc-tagged wild-type RBD (SARS-CoV-2, UniProt P0DTC2); test: BLI
[2] = biological target: His-tagged RBD protein of SARS-CoV-2 (SARS-CoV-2, wild type (Wuhan-Hu-1 …, UniProt P0DTC2)); test: BLI

B1: CoV2–06 (antibody, V domains shown)
VH: QVELQESGPGLVKPSGTLSLTCAVSGGSISSNNWWTWVRQPPGKGLEWIGEIHHSGGTNYNPSLKSRVTMSVDKSKNQFSLNLYSVTAADTAVYYCTRDRAGGTYSGFDFWGQGTLVTVSS
VL: QAVVTQPASVSGSPGQSITISCTGTSSDVGGYNYVSWYQQHPGKAPKLMIYDVSNRPSGVSNRFSGSKSGNTASLTISGLQAEDEADYYCSSYTSSSTVVFGGGTKVTVL
IC50 [1]: 0.0398 µM | fold change of the avidity KD, RBD loaded at 1000 ng/ml against 40 ng/ml [2]: 46 fold

B2: CoV2–14 (antibody, V domains shown)
VH: EVQLQQSGPGLVKPSQTLSLTCAISGDSVSSNSAAWNWIRQSPSRGLEWLGRTYYRSKWYNDYAVSVKSRITINPDTSKNQFSLQLNSVTPEDTAVYYCAREEQQLVHDYYYYGMDVWGQGTMVTVSS
VL: QAVVTQPASVSGSPGQSITISCTGTSSDIGAYNYISWYQQHPGKAPKLIIYEVSNRPSGISYRFSGSKSGNTASLTISGLQAEDEANYYCSSYAGSISFGGGTKVTVL
IC50 [1]: 0.0106 µM | fold change of the avidity KD, RBD loaded at 1000 ng/ml against 40 ng/ml [2]: 2 fold
